The values below come from the supplement of paper PMC10567573.

A short description of this series: protein stability index of a GFP-peptide fusion (GPS, HEK-293T) (PSI 1-6); higher = more stable.
The mark [1] stands for this setting: treatment: DMSO, c terminus: a fixed tail appended.
Where [2] appears, read: treatment: MLN4924 1 uM, 8 h, c terminus: a fixed tail appended.

± gives the standard deviation.
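Also: 24-mer peptide tiles fused after GFP, lentivirally expressed, FACS-sorted into six equal bins by GFP/DsRed ratio, decoded by Illumina sequencing, PSI is the read-weighted mean bin number.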

For NLRYGFTKEVMNKYKVHGKEILRT [PPEF2], the protein stability index by setting is: under setting [1], 2.63 ± 0.3; under setting [2], 2.57 ± 0.31.
Sequence NMCGYHSQDRYEFSSHITRGEHRF [IKZF1] registered a protein stability index under setting [1] of 2.47 ± 0.24 and a protein stability index under setting [2] of 2.55 ± 0.65.
As to NNQEEETEFKELDGLREALANLRG [CCDC89], the protein stability index under setting [1] stood at 4.71 ± 0.29 and the protein stability index under setting [2] amounted to 4.58 ± 0.4.
With NPEEDEDQRNPAKESLETPSNGRI [SOAT1], the protein stability index came to 5.76 ± 0.064 under setting [1] and 5.62 ± 0.077 under setting [2].
For NRTLWRLDLAGNNIPGDVLRAVEQ [LRRC45], the protein stability index turned out to be 3.01 ± 0.6 under setting [1] and 3.51 ± 0.43 under setting [2].
For NSDRMTHCGVLEFVADEGICYLPH [UFD1], the protein stability index reads like this: under setting [1], 2.87 ± 0.17; under setting [2], 2.68 ± 0.36.
In the case of NSELVQSGKSEISELRRTMQALEI [KRT17], the protein stability index is, setting by setting: under setting [1], 3.94 ± 0.18; under setting [2], 3.94 ± 0.42.
With NSVSSHASSPYISSVQSYPGSASL [DLX1], the protein stability index by setting is: under setting [1], 3.65 ± 0.19; under setting [2], 3.75 ± 0.23.
For NTQTEELNQQVVSSSEQLQCCQTE [KRT36] the same measures were 5.49 ± 0.28 and 5.51 ± 0.081.
As for NVHFKEETVKLFICELVMALDYLQ [STK32A], the protein stability index turned out to be 2.81 ± 0.7 under setting [1] and 2.85 ± 0.62 under setting [2].
Take NVLHVARLPNRQLISCSEDGSVRI [WDR41]: the protein stability index came to 2.99 ± 0.17 under setting [1] and 3.12 ± 0.32 under setting [2].
NVLLFKKQNPGKFCLLSCGILTFL [RETREG3]: the protein stability index stood at 2.43 ± 0.69 under setting [1] and 2.89 ± 0.73 under setting [2].
In the case of NVPSSSLPAQPNRKPGMSSTARRS [CHMP4C], the protein stability index reads like this: under setting [1], 4.9 ± 0.32; under setting [2], 4.99 ± 0.13.
For the sequence NVVVHDWLYYYAYKDFLWFFSKRF [SOAT1], the protein stability index amounted to 2.18 ± 0.35 under setting [1] and 2.17 ± 0.44 under setting [2].
Turning to NWIVPGKFLAFSGPHPKSKIENGY [CDC14A], the protein stability index runs as follows: under setting [1], 2.32 ± 0.36; under setting [2], 2.61 ± 0.48.
For the sequence NWRRKHEEFIATIRAAKGLDQALK [ZC2HC1A], the protein stability index was determined as 2.71 ± 0.18 under setting [1] and 2.78 ± 0.24 under setting [2].
As for NYTATVRGLRGPNLTSPASITFTT [TNXB], the protein stability index stood at 2.66 ± 0.23 under setting [1] and 2.79 ± 0.41 under setting [2].
For the sequence PALKIYEYHVKPLQTKHLKNNSS [SAMD13], the protein stability index is, setting by setting: (treatment: DMSO, c terminus: native) 3 ± 0.15; (treatment: MLN4924 1 uM, 8 h, c terminus: native) 3.04 ± 0.2.
Consider PAPLLVLCPSRAELDRWLYHLEKQ [PLEKHN1], for which the protein stability index was determined as 2.62 ± 0.11 under setting [1] and 2.17 ± 0.29 under setting [2].
Regarding PAQLSEDITRYYLCLQLRDDIVSG [EPB41L3], the protein stability index stood at 2.3 ± 0.24 under setting [1] and 2.43 ± 0.35 under setting [2].
As for PAVRQLLPCARVQICRAQGLETLF [ZSWIM9], the protein stability index by setting is: under setting [1], 2.19 ± 0.49; under setting [2], 2.5 ± 0.64.
Sequence PAYVGPEILSSRASYSGKAADVWS [TRIB3] came in with a protein stability index under setting [1] of 3.09 ± 0.2 and a protein stability index under setting [2] of 3.18 ± 0.19.
Sequence PDCLRACQEQIEALLESSLRQAQQ [CCND1] displayed a protein stability index under setting [1] of 3.23 ± 0.34 and a protein stability index under setting [2] of 3.59 ± 0.38.
Take PDEGSDLFYDDYYEDGEVEEEADS [CDC34]: the protein stability index stood at 5.36 ± 0.32 under setting [1] and 5.66 ± 0.25 under setting [2].
Consider PDKESMYYPRVQHYRELLDSLPMD [GDAP1], for which the protein stability index by setting is: under setting [1], 3.38 ± 0.23; under setting [2], 3.48 ± 0.35.
For PDVVVRSFMTWLRSYIKLFQAPCQ [MED27], the protein stability index reads like this: under setting [1], 2.06 ± 0.19; under setting [2], 2.12 ± 0.28.
The matching figures for PEAAAAQLRATAGSLILPPGPGGT [FCHO1]: 4.26 ± 0.41 and 4.26 ± 0.53.
Turning to PEASHLRFRRFRFQEAAGPREALS [ZNF263], the protein stability index is, setting by setting: under setting [1], 3.15 ± 0.42; under setting [2], 3.31 ± 0.51.
As to PEVEVQVKRRRTASLSNQECQLYP [SNURF], the protein stability index is 4.77 ± 0.2 under setting [1] and 4.84 ± 0.17 under setting [2].
